# Results reported in patent US20150344570A1 (published 2015).
# B1: GpH7-B3 variant S298_03V/GpL16-k0 (antibody, human IgG1, kappa)
# heavy: not shown
# light: DIVMTQSPLSLPVTPGEPASISCQASESLVHSNRNTYLHWYLQKPGQSPQLLIYKVSNRFSGVPDRFSGSGSGTDFTLKISRVEAEDVGVYYCSQNTHVPPTFGQGTKVEIERTVAAPSVFIFPPSDEQLKSGTASVVCLLNNFYPREAKVQWKVDNALQSGNSQESVTEQDSKDSTYSLSSTLTLSKADYEKHKVYACEVTHQGLSSPVTKSFNRGEC
# notes: also called Ho Ab S298_03V
# B2: GpH7-A5/GpH7-B3 variant S298_11K/GpL16-k0 (antibody, human IgG1, kappa)
# heavy 1: not shown
# heavy 2: not shown
# light: B1 light
# notes: also called He Ab S298_11K
# B3: GpH7-B3 variant S298_10E/GpL16-k0 (antibody, human IgG1, kappa)
# heavy: not shown
# light: B1 light
# notes: also called Ho Ab S298_10E
# B4: GpH7-A5/GpH7-B3 variant P271_13S/GpL16-k0 (antibody, human IgG1, kappa)
# heavy 1: not shown
# heavy 2: not shown
# light: B1 light
# notes: also called He Ab P271_13S
# B5: GpH7-A5/GpH7-B3 variant P271_06M/GpL16-k0 (antibody, human IgG1, kappa)
# heavy 1: not shown
# heavy 2: not shown
# light: B1 light
# notes: also called He Ab P271_06M
# B6: GpH7-B3 variant T335_08L/GpL16-k0 (antibody, human IgG1, kappa)
# heavy: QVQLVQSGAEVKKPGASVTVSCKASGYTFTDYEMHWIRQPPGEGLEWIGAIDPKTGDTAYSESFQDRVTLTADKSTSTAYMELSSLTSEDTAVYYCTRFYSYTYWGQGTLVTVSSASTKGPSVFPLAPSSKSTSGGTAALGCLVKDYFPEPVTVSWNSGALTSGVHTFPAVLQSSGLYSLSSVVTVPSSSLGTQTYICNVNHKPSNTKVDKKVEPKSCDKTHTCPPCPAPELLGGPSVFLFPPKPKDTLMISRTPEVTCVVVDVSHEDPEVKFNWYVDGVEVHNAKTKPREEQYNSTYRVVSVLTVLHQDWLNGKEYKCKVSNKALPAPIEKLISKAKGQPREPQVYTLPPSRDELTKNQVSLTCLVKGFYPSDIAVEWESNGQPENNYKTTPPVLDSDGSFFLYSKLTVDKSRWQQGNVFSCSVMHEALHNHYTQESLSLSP
# light: B1 light
# notes: also called Ho Ab T335_08L
# B7: GpH7-B3 variant T335_10E/GpL16-k0 (antibody, human IgG1, kappa)
# heavy: not shown
# light: B1 light
# notes: also called Ho Ab T335_10E
# B8: GpH7-B3 variant S298_12R/GpL16-k0 (antibody, human IgG1, kappa)
# heavy: not shown
# light: B1 light
# notes: also called Ho Ab S298_12R
# B9: GpH7-B3 variant S298_15Y/GpL16-k0 (antibody, human IgG1, kappa)
# heavy: not shown
# light: B1 light
# notes: also called Ho Ab S298_15Y
# B10: GpH7-B3 variant S324_19Q/GpL16-k0 (antibody, human IgG1, kappa)
# heavy: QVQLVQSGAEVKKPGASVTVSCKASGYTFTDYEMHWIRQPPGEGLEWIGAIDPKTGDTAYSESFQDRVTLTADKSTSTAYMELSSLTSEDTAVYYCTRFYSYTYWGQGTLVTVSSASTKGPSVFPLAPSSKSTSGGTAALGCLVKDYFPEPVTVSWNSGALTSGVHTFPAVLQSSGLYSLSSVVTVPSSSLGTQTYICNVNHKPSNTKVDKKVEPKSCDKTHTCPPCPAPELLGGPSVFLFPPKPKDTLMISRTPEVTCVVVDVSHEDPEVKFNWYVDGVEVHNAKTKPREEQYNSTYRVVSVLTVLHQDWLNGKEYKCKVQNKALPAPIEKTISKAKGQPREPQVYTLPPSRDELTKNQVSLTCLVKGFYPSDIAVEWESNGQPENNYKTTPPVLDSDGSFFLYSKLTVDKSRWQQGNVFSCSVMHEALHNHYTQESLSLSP
# light: B1 light
# notes: also called Ho Ab S324_19Q
# B11: GpH7-B3 variant S298_19Q/GpL16-k0 (antibody, human IgG1, kappa)
# heavy: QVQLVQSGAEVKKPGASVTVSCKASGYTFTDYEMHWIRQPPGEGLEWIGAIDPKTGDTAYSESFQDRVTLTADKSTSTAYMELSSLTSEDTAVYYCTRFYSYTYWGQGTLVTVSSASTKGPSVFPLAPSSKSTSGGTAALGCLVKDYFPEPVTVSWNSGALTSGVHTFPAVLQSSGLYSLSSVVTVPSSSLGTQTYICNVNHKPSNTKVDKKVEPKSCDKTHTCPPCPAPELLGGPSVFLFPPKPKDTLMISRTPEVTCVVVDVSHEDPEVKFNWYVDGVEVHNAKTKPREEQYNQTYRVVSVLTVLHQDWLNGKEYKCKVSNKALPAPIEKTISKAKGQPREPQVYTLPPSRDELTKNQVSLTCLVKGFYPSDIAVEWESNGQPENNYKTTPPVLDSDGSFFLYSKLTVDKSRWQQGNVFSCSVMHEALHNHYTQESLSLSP
# light: B1 light
# notes: also called Ho Ab S298_19Q
# B12: GpH7-B3 variant S337_20W/GpL16-k0 (antibody, human IgG1, kappa)
# heavy: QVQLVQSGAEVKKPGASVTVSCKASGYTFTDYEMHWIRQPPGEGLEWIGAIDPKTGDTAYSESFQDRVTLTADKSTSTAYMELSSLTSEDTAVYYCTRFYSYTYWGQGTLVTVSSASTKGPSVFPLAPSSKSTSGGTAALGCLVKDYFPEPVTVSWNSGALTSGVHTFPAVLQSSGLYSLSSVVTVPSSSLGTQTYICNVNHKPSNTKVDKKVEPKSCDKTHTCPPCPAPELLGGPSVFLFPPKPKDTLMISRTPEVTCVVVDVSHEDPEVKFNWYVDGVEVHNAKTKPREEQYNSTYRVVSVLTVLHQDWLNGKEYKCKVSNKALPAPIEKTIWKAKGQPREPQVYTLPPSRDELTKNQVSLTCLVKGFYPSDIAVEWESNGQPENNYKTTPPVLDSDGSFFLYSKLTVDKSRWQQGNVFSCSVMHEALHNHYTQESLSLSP
# light: B1 light
# notes: also called Ho Ab S337_20W
# B13: GpH7-B3 variant S337_06M/GpL16-k0 (antibody, human IgG1, kappa)
# heavy: not shown
# light: B1 light
# notes: also called Ho Ab S337_06M
# B14: GpH7-B3 variant S298_14T/GpL16-k0 (antibody, human IgG1, kappa)
# heavy: not shown
# light: B1 light
# notes: also called Ho Ab S298_14T
# B15: GpH7-B3 variant S324_11K/GpL16-k0 (antibody, human IgG1, kappa)
# heavy: not shown
# light: B1 light
# notes: also called Ho Ab S324_11K
# B16: GpH7-B3 variant S324_12R/GpL16-k0 (antibody, human IgG1, kappa)
# heavy: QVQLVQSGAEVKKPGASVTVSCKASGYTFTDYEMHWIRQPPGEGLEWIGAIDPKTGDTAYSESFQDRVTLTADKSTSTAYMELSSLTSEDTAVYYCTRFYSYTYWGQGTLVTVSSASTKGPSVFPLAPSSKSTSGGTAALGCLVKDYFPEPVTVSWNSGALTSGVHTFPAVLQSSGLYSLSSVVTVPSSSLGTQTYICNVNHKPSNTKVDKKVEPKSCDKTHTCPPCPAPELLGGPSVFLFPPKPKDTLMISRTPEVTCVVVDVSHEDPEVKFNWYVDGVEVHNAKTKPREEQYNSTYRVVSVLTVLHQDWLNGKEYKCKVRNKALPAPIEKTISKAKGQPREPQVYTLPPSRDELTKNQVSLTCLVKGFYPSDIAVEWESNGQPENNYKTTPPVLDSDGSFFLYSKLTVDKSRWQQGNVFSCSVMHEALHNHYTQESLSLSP
# light: B1 light
# notes: also called Ho Ab S324_12R
# B17: GpH7-B3 variant S324_02A/GpL16-k0 (antibody, human IgG1, kappa)
# heavy: not shown
# light: B1 light
# notes: also called Ho Ab S324_02A
# B18: GpH7-B3 variant S324_14T/GpL16-k0 (antibody, human IgG1, kappa)
# heavy: not shown
# light: B1 light
# notes: also called Ho Ab S324_14T
# B19: GpH7-B3 variant S298_16H/GpL16-k0 (antibody, human IgG1, kappa)
# heavy: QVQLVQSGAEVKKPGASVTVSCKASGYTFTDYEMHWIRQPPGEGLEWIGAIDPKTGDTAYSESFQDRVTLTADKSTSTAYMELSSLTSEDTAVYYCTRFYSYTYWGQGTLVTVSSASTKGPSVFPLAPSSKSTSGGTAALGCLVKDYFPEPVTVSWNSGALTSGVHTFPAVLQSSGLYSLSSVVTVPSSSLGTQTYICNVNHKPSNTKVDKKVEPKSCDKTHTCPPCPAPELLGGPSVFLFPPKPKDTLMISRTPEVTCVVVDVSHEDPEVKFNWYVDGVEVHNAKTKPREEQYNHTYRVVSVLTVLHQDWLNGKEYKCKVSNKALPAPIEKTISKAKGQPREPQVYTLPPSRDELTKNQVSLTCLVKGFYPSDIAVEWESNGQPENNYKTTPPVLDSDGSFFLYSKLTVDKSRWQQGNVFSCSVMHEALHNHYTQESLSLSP
# light: B1 light
# notes: also called Ho Ab S298_16H
# B20: GpH7-B3 variant S337_12R/GpL16-k0 (antibody, human IgG1, kappa)
# heavy: not shown
# light: B1 light
# notes: also called Ho Ab S337_12R
# B21: GpH7-B3 variant Y300_12R/GpL16-k0 (antibody, human IgG1, kappa)
# heavy: not shown
# light: B1 light
# notes: also called Ho Ab Y300_12R
# B22: GpH7-B3 variant T335_11K/GpL16-k0 (antibody, human IgG1, kappa)
# heavy: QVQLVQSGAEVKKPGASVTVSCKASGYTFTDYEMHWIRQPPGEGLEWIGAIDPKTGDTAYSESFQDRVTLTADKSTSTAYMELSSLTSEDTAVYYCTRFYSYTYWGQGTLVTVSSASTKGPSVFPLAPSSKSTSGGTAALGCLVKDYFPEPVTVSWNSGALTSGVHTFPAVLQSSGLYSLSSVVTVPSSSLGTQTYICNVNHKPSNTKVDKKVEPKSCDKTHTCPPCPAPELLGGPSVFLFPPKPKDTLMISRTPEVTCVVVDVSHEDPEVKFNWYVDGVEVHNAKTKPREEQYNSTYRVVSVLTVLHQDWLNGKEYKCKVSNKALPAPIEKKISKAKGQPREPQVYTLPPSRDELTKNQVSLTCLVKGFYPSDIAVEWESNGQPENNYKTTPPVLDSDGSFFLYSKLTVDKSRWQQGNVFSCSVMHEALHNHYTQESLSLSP
# light: B1 light
# notes: also called Ho Ab T335_11K
# B23: GpH7-A5/GpH7-B3 variant P271_04F/GpL16-k0 (antibody, human IgG1, kappa)
# heavy 1: not shown
# heavy 2: not shown
# light: B1 light
# notes: also called He Ab P271_04F
# B24: GpH7-B3 variant S298_18N/GpL16-k0 (antibody, human IgG1, kappa)
# heavy: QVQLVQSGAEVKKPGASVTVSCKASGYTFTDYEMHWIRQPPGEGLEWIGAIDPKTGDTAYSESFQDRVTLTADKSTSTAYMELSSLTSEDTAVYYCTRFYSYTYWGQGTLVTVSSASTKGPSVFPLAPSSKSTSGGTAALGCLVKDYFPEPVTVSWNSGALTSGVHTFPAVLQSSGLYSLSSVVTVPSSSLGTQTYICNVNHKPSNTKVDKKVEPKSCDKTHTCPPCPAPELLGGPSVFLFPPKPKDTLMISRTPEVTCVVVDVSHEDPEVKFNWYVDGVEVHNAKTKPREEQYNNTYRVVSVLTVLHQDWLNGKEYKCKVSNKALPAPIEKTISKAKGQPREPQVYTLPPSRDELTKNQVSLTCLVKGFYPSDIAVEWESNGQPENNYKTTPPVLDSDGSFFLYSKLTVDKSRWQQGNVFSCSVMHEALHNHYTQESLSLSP
# light: B1 light
# notes: also called Ho Ab S298_18N
# B25: GpH7-B3 variant S337_19Q/GpL16-k0 (antibody, human IgG1, kappa)
# heavy: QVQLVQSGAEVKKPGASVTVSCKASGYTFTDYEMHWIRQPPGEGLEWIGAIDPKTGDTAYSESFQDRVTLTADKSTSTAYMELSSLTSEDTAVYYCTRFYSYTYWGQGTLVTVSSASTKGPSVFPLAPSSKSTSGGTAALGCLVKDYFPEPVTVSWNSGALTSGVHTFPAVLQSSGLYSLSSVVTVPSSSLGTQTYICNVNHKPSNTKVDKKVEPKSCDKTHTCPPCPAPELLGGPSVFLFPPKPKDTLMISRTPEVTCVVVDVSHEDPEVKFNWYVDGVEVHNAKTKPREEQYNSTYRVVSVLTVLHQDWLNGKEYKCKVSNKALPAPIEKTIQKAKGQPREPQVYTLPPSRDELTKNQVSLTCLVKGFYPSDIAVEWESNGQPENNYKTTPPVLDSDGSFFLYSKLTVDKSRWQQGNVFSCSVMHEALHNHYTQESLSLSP
# light: B1 light
# notes: also called Ho Ab S337_19Q
# B26: GpH7-B3 variant S324_16H/GpL16-k0 (antibody, human IgG1, kappa)
# heavy: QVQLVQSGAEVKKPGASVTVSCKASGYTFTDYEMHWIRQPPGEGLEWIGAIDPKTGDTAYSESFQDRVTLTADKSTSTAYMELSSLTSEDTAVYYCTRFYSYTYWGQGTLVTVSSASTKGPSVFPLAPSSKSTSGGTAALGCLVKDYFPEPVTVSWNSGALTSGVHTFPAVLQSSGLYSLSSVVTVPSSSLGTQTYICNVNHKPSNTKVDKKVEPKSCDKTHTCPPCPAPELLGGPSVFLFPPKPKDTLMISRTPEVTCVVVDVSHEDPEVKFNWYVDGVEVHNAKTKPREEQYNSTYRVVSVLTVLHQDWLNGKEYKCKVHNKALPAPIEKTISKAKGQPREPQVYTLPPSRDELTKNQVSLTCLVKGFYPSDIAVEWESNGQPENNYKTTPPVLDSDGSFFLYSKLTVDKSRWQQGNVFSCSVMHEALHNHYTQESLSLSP
# light: B1 light
# notes: also called Ho Ab S324_16H
# B27: GpH7-B3 variant S337_03V/GpL16-k0 (antibody, human IgG1, kappa)
# heavy: not shown
# light: B1 light
# notes: also called Ho Ab S337_03V
# B28: GpH7-B3 variant T335_15Y/GpL16-k0 (antibody, human IgG1, kappa)
# heavy: not shown
# light: B1 light
# notes: also called Ho Ab T335_15Y
# How the values were obtained:
# [1] = target: T1, FcγRIa (human, UniProt P12314 16-292); assay: SPR (Biacore); Ho Ab vs HoCon Ab GpH7-B3/GpL16-k0
# T1 construct: extracellular domain; Soluble extracellular domain expressed in FreeStyle293 cells, used as analyte in Biacore; also called FcgRI; 1a; not shown: His tag attached to the C terminus
# T1 sequence (P12314 16-292): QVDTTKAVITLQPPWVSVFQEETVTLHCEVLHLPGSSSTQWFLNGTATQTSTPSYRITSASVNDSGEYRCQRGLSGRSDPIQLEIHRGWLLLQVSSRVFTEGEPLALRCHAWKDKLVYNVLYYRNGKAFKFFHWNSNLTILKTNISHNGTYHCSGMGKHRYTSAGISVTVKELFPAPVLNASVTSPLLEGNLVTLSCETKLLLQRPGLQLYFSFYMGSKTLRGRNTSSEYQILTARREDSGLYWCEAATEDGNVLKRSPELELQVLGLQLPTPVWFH
# Procedure: (§1) Analysis of interaction between objective antibody and the FcγR was carried out using Biacore T100 (GE Healthcare). HBS-EP+ (GE Healthcare) was used as the running buffer, and the measurement temperature was set to 25° C. Chips produced by immobilizing the antigen peptide by the amine coupling method to a Series S Sencor Chip CM5 (GE Healthcare), or alternatively, chips produced by allowing preliminarily biotinylated antigen peptides to interact with and immobilize onto a Series S Sensor Chip SA (certified) (GE Healthcare) were used. Antibodies of interest were captured onto an antigen peptide-immobilized chip, and allowed to interact to each FcγR diluted with running buffer. To regenerate and repeatedly use the chip, the antibodies captured on the chip were washed off by reacting 10 mM glycine-HCl, pH 1.5.
# [2] = target: T1, FcγRIa; assay: SPR (Biacore); He Ab vs HeCon Ab GpH7-A5/GpH7-B3/GpL16-k0
# Procedure: as §1
Binder,Ho/Con_1a [1],He/Con_1a [2]
B1,"106 relative binding, control = 100",–
B2,–,"109 relative binding, control = 100"
B3,"106 relative binding, control = 100",–
B4,–,"102 relative binding, control = 100"
B5,–,"102 relative binding, control = 100"
B6,"105 relative binding, control = 100",–
B7,"108 relative binding, control = 100",–
B8,"94.5 relative binding, control = 100",–
B9,"103 relative binding, control = 100",–
B10,"111 relative binding, control = 100",–
B11,"105 relative binding, control = 100",–
B12,"104 relative binding, control = 100",–
B13,"102 relative binding, control = 100",–
B14,"106 relative binding, control = 100",–
B15,"100 relative binding, control = 100",–
B16,"101 relative binding, control = 100",–
B17,"103 relative binding, control = 100",–
B18,"112 relative binding, control = 100",–
B19,"107 relative binding, control = 100",–
B20,"105 relative binding, control = 100",–
B21,"96.5 relative binding, control = 100",–
B22,"103 relative binding, control = 100",–
B23,–,"102 relative binding, control = 100"
B24,"104 relative binding, control = 100",–
B25,"105 relative binding, control = 100",–
B26,"111 relative binding, control = 100",–
B27,"105 relative binding, control = 100",–
B28,"106 relative binding, control = 100",–
